Assay results from the supplement of paper PMC7125110.
± gives the standard error. For some of these results: Variants at the floor of the assay were thinned out.

B1: glmS ribozyme (parent)
chain: AUAAAAGCGCCAGAACUACAGAAAUGUAGUUGACGAGGAGGAGGUUUAUCGAAUUUUCGGCGGAUGCCUCCAAA

How the values were obtained:
Settings in all cases: with glucosamine-6-phosphate
glucosamine-6-phosphate [1] = variants of: B1; assay: kcat; higher = faster cleavage; RNA array
Outline: (§1)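 Barcoded ribozyme variants on sequenced MiSeq chips were transcribed in situ by E. coli RNA polymerase and followed at 37 °C through a hybridised Cy3 probe. Glucosamine-6-phosphate at 40 μM to 10 mM in HEPES/KCl/Mg(OAc)2 buffer was flowed in, and tiles were imaged over ~14 h. Signals were normalised to baseline and to non-cleaving reference variants, and per-tile medians were fit to one- or two-exponential decays to give kobs. Weighted Michaelis–Menten fits across concentrations gave kcat and KM.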

glucosamine-6-phosphate [2] = variants of: B1; assay: self-cleavage kobs at 160 uM GlcN6P; higher = faster cleavage; RNA array
Outline: as §1

glucosamine-6-phosphate [3] = variants of: B1; assay: self-cleavage kobs at 2500 uM GlcN6P; higher = faster cleavage; RNA array
Outline: as §1

glucosamine-6-phosphate [4] = variants of: B1; assay: self-cleavage kobs at 40 uM GlcN6P; higher = faster cleavage; RNA array
Outline: as §1

glucosamine-6-phosphate [5] = variants of: B1; assay: self-cleavage kobs at 640 uM GlcN6P; higher = faster cleavage; RNA array
Outline: as §1

glucosamine-6-phosphate [6] = variants of: B1; assay: KM; higher = weaker cofactor use; RNA array
Outline: as §1

glucosamine-6-phosphate [7] = variants of: B1; assay: self-cleavage kobs at 10000 uM GlcN6P; higher = faster cleavage; RNA array
Outline: as §1

Row | Variant | kcat (glucosamine-6-phosphate [1]) [s⁻¹] | self-cleavage kobs at 160 uM GlcN6P (glucosamine-6-phosphate [2]) [s⁻¹] | self-cleavage kobs at 2500 uM GlcN6P (glucosamine-6-phosphate [3]) [s⁻¹] | self-cleavage kobs at 40 uM GlcN6P (glucosamine-6-phosphate [4]) [s⁻¹] | self-cleavage kobs at 640 uM GlcN6P (glucosamine-6-phosphate [5]) [s⁻¹] | KM (glucosamine-6-phosphate [6]) [µM] | self-cleavage kobs at 10000 uM GlcN6P (glucosamine-6-phosphate [7]) [s⁻¹]
1 | C50G G59C | 4e-05 ± 1.5e-05 | 6.56e-05 ± 3.2e-05 | 5.58e-05 ± 2.3e-05 |  |  |  | 
2 | A39C C67G | 0.000391 ± 0.00014 | 3.74e-05 ± 7.5e-06 | 0.000216 ± 1.7e-05 | 2.13e-05 ± 7.7e-06 | 8.41e-05 ± 7.6e-06 |  | 
3 | G44U U56G | 0.00018 ± 3.5e-05 |  | 6.96e-05 ± 1.9e-05 |  | 3.67e-05 ± 1.1e-05 | 3010 ± 1100 | 0.00015 ± 3.7e-05
4 | U31A G44U | 0.00017 ± 9.6e-06 |  | 6.38e-05 ± 1.6e-05 |  |  | 3960 ± 530 | 0.000122 ± 1.8e-05
5 | U47C G63A | < 1e-05 |  |  |  | < 1e-05 |  | 
6 | G13U A53U | 0.00139 ± 4.1e-05 | 5.58e-05 ± 2e-05 | 0.000584 ± 0.00011 |  | 0.000213 ± 3.9e-05 | 3550 ± 190 | 0.00103 ± 0.00011
7 | G43U U65A | 4.13e-05 ± 2e-06 | < 1e-05 |  |  | < 1e-05 | 5670 ± 730 | 2.64e-05 ± 1.1e-05
8 | U46G G66U C67U | 0.000249 ± 2.4e-05 |  | 0.000172 ± 6.1e-05 |  | 0.000128 ± 3e-05 | 804 ± 230 | 0.00023 ± 3.9e-05
9 | G40C C71U | 0.00477 ± 0.0015 | 0.000335 ± 4.3e-05 | 0.00328 ± 0.00041 | 0.000198 ± 2.6e-05 | 0.00124 ± 0.00014 | 1730 ± 780 | 0.00384 ± 0.00053
10 | G43C C68A | 1.06e-05 ± 2.2e-06 |  |  | < 1e-05 |  |  | 
11 | G35C C50G | 0.000276 ± 6.8e-05 | 7.69e-05 ± 3.7e-05 | 0.000107 ± 1.2e-05 | 3.26e-05 ± 1.4e-05 | 4.8e-05 ± 1.6e-05 |  | 0.000205 ± 1.5e-05
12 | C16U C70A | 0.000203 ± 1.9e-05 | 7.15e-05 ± 9.6e-06 | 0.000204 ± 2.2e-05 |  | 0.000148 ± 2.1e-05 | 296 ± 79 | 0.000177 ± 2e-05
13 | U30C G62U | < 1e-05 | < 1e-05 |  |  |  |  | < 1e-05
14 | G41A U45C | 0.0002 ± 3.8e-05 | 6.67e-05 ± 1.8e-05 | 0.000154 ± 3.9e-05 |  | 0.000158 ± 3.6e-05 | 303 ± 140 | 0.000372 ± 0.00017
15 | A12C U49C | < 1e-05 |  |  |  |  |  | < 1e-05
16 | U45C U49C G66U | < 1e-05 |  | < 1e-05 |  |  |  | < 1e-05
17 | U46C C71U | 0.00342 ± 0.00056 | 0.000375 ± 5.8e-05 | 0.00309 ± 0.00044 | 0.000102 ± 1.5e-05 | 0.00126 ± 0.00019 | 1240 ± 290 | 0.00266 ± 0.00038

Row | Variant | kcat (glucosamine-6-phosphate [1]) [s⁻¹] | self-cleavage kobs at 160 uM GlcN6P (glucosamine-6-phosphate [2]) [s⁻¹] | self-cleavage kobs at 2500 uM GlcN6P (glucosamine-6-phosphate [3]) [s⁻¹] | self-cleavage kobs at 40 uM GlcN6P (glucosamine-6-phosphate [4]) [s⁻¹] | self-cleavage kobs at 640 uM GlcN6P (glucosamine-6-phosphate [5]) [s⁻¹] | KM (glucosamine-6-phosphate [6]) [µM] | self-cleavage kobs at 10000 uM GlcN6P (glucosamine-6-phosphate [7]) [s⁻¹]
18 | G29A G37U | < 1e-05 |  |  |  |  |  | 
19 | C16G U31G | 0.000843 ± 0.00018 | 4.98e-05 ± 1.6e-05 | 0.000366 ± 0.0001 | 4.37e-05 ± 1.7e-05 | 0.000186 ± 4.5e-05 | 2360 ± 940 | 0.00071 ± 0.0001
20 | U31C A52U G63U U69G | 1.91e-05 ± 1.4e-06 |  |  |  |  |  | 
21 | U54A C70U | 0.00432 ± 0.00063 | 0.00258 ± 0.00056 | 0.00404 ± 0.0014 | 0.00148 ± 0.00013 | 0.00479 ± 0.0013 | 78.3 ± 20 | 
22 | G32C G51U | < 1e-05 |  |  |  |  |  | 
23 | G29C C70A | 4.11e-05 ± 9.8e-06 | 2.35e-05 ± 1.1e-05 | 4.33e-05 ± 9.8e-06 |  | 5.19e-05 ± 9.6e-06 |  | 
24 | G13A U55C | 0.000582 ± 0.00014 | 3.73e-05 ± 1.6e-05 | 0.000191 ± 3.5e-05 |  | 0.000123 ± 1.6e-05 | 2910 ± 1300 | 0.000492 ± 4.8e-05
25 | G62U C68U | 1.22e-05 ± 1.2e-06 |  |  |  | < 1e-05 |  | 
26 | G37A C70A | 1.38e-05 ± 4.2e-06 |  |  | < 1e-05 |  |  | 
27 | C16U A53G | 0.0256 ± 0.012 | 0.00153 ± 0.00061 | 0.013 ± 0.0042 | 0.00111 ± 0.00015 | 0.0112 ± 0.0028 |  | 0.0282 ± 0.0061
28 | A39U U46C | 0.0117 ± 0.0022 | 0.000743 ± 0.00014 | 0.00541 ± 0.0019 | 0.000154 ± 1.5e-05 | 0.00284 ± 0.00046 | 2780 ± 640 | 0.00883 ± 0.0013
29 | G13C A15G U45A | 0.000289 ± 4.4e-05 |  | 0.000129 ± 2.4e-05 | < 1e-05 | 4.01e-05 ± 1.3e-05 | 3490 ± 950 | 0.000208 ± 4.4e-05
30 | U30C G32U | 0.000492 ± 0.00011 |  | 0.000183 ± 2.9e-05 |  | 9.97e-05 ± 1.7e-05 | 3230 ± 1300 | 0.000403 ± 5.7e-05
31 | A53G G66A | 0.0293 ± 0.014 |  | 0.0128 ± 0.005 | 0.000617 ± 0.00011 | 0.00474 ± 0.0013 |  | 0.0293 ± 0.0075
32 | A12G C70A | 0.000118 ± 8.6e-06 |  | 7.34e-05 ± 1.3e-05 |  | 4.35e-05 ± 7.9e-06 | 1110 ± 270 | 0.000108 ± 9.4e-06
33 | A52G G62U | < 1e-05 |  |  |  |  |  | 
34 | C58A C70U | 0.000164 ± 2.2e-05 | 3.94e-05 ± 9.4e-06 | 0.000143 ± 1.3e-05 |  | 6.79e-05 ± 8.4e-06 | 718 ± 270 | 0.000145 ± 1.7e-05
